Test results published in paper PMC9482650, “Quantitative fragmentomics allow affinity mapping of interactomes” (Nature Communications, 2022).

Assays:
Assay in all cases: holdup assay
Set-up in all cases: key: below the threshold = too weak to quantify, mostly under pKd 3.1 to 4
APBA1_1, Q02410 = target: T1, APBA1_1, Q02410
T1 sequence (Q02410 651-752, limits assumed, looked up): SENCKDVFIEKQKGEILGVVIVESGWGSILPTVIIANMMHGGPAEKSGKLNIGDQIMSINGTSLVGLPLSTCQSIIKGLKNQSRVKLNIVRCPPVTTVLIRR

ARHGEF11, O15085 = target: T2, ARHGEF11, O15085
T2 sequence (O15085 42-136, limits assumed, looked up): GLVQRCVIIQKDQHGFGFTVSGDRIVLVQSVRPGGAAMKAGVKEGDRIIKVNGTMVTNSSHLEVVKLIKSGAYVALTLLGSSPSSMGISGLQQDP

ARHGEF12, Q9NZN5-2 = target: ARHGEF12, Q9NZN5-2
ARHGEF12, Q9NZN5-2, sequence (Q9NZN5 other isoform, or with tags, fused parts or gaps): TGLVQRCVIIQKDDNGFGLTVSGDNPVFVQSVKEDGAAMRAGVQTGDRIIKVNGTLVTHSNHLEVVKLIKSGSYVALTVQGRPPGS

DLG5_1, Q8TDM6 = target: DLG5_1, Q8TDM6
DLG5_1, Q8TDM6, sequence (Q8TDM6 617-713): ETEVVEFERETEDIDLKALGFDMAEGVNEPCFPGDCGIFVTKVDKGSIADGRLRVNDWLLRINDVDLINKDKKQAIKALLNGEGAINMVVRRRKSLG

FRMPD3, Q5JV73 = target: FRMPD3, Q5JV73
FRMPD3, Q5JV73, sequence (Q5JV73 12-100): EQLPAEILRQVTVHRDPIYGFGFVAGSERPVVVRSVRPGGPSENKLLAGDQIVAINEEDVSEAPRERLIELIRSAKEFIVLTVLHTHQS

GRID2IP_2, A4D2P6 = target: GRID2IP_2, A4D2P6
GRID2IP_2, A4D2P6, sequence (A4D2P6 272-370): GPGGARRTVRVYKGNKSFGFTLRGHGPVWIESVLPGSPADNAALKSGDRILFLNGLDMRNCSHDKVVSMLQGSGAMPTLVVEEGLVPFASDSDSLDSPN

GRIP1_2, Q9Y3R0 = target: T3, GRIP1_2, Q9Y3R0
T3 sequence (Q9Y3R0 145-248, limits assumed, looked up): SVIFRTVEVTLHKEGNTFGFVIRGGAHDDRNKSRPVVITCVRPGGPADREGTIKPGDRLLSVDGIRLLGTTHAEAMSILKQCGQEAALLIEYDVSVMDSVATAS

HTRA1, Q92743 = target: HTRA1, Q92743
HTRA1, Q92743, sequence (Q92743 360-477): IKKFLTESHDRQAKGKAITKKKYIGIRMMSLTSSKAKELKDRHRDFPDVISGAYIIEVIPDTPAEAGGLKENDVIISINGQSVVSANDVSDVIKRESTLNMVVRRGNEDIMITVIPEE

IL16_1, Q14005 = target: IL16_1, Q14005
IL16_1, Q14005, sequence (Q14005 210-306): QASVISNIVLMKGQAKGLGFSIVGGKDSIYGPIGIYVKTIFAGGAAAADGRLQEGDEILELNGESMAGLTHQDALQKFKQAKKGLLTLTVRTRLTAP

IL16_3, Q14005 = target: IL16_3, Q14005
IL16_3, Q14005, sequence (Q14005 1107-1207): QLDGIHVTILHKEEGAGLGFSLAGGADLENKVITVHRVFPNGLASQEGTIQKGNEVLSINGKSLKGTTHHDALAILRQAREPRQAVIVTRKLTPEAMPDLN

Inadl_3, Q8NI35 = target: Inadl_3, Q8NI35
Inadl_3, Q8NI35, sequence (Q8NI35 359-469): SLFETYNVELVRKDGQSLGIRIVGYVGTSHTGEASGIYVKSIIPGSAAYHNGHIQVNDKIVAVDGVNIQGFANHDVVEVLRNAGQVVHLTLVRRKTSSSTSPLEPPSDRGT

Inadl_5, Q8NI35 = target: Inadl_5, Q8NI35
Inadl_5, Q8NI35, sequence (Q8NI35 673-780): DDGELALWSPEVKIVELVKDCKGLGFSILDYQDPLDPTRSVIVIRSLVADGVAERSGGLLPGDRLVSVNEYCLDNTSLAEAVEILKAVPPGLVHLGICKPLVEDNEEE

LNX1_2, Q8TBB1 = target: LNX1_2, Q8TBB1
LNX1_2, Q8TBB1, sequence (Q8TBB1 371-470): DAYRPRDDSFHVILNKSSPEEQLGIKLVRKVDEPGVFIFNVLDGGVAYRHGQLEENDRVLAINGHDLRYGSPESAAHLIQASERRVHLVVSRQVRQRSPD

MAGI2_2, Q86UL8 = target: MAGI2_2, Q86UL8
MAGI2_2, Q86UL8, sequence (Q86UL8 410-522): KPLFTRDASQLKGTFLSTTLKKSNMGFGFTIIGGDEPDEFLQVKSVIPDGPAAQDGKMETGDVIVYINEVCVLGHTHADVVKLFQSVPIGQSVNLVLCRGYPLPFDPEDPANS

MAGI3_2, Q5TCQ9 = target: MAGI3_2, Q5TCQ9
MAGI3_2, Q5TCQ9, sequence (Q5TCQ9 398-503): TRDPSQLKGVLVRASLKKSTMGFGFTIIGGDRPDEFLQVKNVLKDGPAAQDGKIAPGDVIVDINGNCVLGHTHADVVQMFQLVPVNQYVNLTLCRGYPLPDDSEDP

MAST1, Q9Y2H9 = target: MAST1, Q9Y2H9
MAST1, Q9Y2H9, sequence (Q9Y2H9 962-1065): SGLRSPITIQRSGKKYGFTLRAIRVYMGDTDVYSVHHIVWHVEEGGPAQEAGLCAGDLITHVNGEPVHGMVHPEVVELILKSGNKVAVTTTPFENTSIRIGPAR

MPP7, Q5T2T1 = target: T4, MPP7, Q5T2T1
T4 sequence (Q5T2T1 134-230, limits assumed, looked up): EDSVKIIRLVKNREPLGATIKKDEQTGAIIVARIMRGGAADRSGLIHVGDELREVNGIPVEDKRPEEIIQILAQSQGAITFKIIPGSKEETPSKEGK

NHERF3_3, Q5T2W1 = target: T5, NHERF3_3, Q5T2W1
T5 sequence (Q5T2W1 238-333, limits assumed, looked up): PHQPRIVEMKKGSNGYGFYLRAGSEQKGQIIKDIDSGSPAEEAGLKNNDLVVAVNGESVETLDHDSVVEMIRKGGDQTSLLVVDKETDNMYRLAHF

PDLIM1, O00151 = target: PDLIM1, O00151
PDLIM1, O00151, sequence (O00151 1-87): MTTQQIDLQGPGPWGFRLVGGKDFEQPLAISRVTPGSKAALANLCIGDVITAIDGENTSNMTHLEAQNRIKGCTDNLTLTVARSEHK

PDZRN3_1, Q9UPQ7 = target: T6, PDZRN3_1, Q9UPQ7
T6 sequence (Q9UPQ7 244-349, limits assumed, looked up): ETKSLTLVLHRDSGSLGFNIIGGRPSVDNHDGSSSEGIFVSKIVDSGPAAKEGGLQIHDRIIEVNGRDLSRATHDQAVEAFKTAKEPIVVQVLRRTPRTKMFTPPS

PTPN3, P26045 = target: PTPN3, P26045
PTPN3, P26045, sequence (P26045 505-587): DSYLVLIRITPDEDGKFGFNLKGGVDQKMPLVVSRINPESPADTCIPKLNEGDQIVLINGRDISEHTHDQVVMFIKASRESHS

RADIL, Q96JH8 = target: T7, RADIL, Q96JH8
T7 sequence (Q96JH8 971-1071, limits assumed, looked up): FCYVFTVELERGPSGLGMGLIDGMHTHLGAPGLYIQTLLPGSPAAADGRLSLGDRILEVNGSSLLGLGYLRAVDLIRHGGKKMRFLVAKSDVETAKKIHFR

RAPGEF6, Q8TEU7 = target: T8, RAPGEF6, Q8TEU7
T8 sequence (Q8TEU7 525-625, limits assumed, looked up): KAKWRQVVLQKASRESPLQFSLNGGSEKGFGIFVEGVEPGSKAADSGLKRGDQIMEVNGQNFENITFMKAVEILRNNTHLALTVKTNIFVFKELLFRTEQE

RHPN1, Q8TCX5 = target: T9, RHPN1, Q8TCX5
T9 sequence (Q8TCX5 508-602, limits assumed, looked up): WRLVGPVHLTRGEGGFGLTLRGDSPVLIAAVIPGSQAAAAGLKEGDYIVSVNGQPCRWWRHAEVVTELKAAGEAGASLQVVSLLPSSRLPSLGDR

SNTA1, Q13424 = target: T10, SNTA1, Q13424
T10 sequence (Q13424 82-180, limits assumed, looked up): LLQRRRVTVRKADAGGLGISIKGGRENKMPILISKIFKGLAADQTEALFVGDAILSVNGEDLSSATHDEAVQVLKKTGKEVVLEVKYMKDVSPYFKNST

SNTG2, Q9NY99 = target: T11, SNTG2, Q9NY99
T11 sequence (Q9NY99 68-166, limits assumed, looked up): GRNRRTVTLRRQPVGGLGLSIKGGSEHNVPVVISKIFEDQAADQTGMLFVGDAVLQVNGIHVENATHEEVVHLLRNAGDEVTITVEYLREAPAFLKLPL

TJP1_3, Q07157 = target: TJP1_3, Q07157
TJP1_3, Q07157, sequence (Q07157 416-512): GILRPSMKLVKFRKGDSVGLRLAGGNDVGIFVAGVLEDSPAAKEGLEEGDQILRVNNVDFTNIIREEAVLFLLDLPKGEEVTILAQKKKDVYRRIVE

[1] = plain residues with an end cap or a label only (N-terminal biotin on a linker: ttds)
[2] = plain residues with an end cap or a label only (N-terminal biotin on a linker: ahx)

Binder: DKDPHSETAL [TMIGD1, Q6UXZ0]
- pKd (APBA1_1, Q02410; [1]): below the threshold
- pKd (ARHGEF11, O15085; [1]): 4.28
- pKd (ARHGEF12, Q9NZN5-2; [1]): 4.17
- pKd (DLG5_1, Q8TDM6; [1]): below the threshold
- pKd (FRMPD3, Q5JV73; [1]): 3.53
- pKd (GRID2IP_2, A4D2P6; [1]): below the threshold
- pKd (GRIP1_2, Q9Y3R0; [1]): below the threshold
- pKd (HTRA1, Q92743; [1]): below the threshold
- pKd (IL16_1, Q14005; [1]): below the threshold
- pKd (IL16_3, Q14005; [1]): below the threshold
- pKd (Inadl_3, Q8NI35; [1]): below the threshold
- pKd (Inadl_5, Q8NI35; [1]): below the threshold
- pKd (LNX1_2, Q8TBB1; [1]): below the threshold
- pKd (MAGI2_2, Q86UL8; [1]): 3.63
- pKd (MAGI3_2, Q5TCQ9; [1]): 4.19
- pKd (MAST1, Q9Y2H9; [1]): 4.85
- pKd (MPP7, Q5T2T1; [1]): below the threshold
- pKd (NHERF3_3, Q5T2W1; [1]): below the threshold
- pKd (PDLIM1, O00151; [1]): below the threshold
- pKd (PDZRN3_1, Q9UPQ7; [1]): 4.64
- pKd (PTPN3, P26045; [1]): 5.02
- pKd (RADIL, Q96JH8; [1]): below the threshold
- pKd (RAPGEF6, Q8TEU7; [1]): below the threshold
- pKd (RHPN1, Q8TCX5; [1]): 3.85
- pKd (SNTA1, Q13424; [1]): 4.07
- pKd (SNTG2, Q9NY99; [1]): 4.06
- pKd (TJP1_3, Q07157; [1]): below the threshold

Binder: SDSSGQEYSL [KCTD3, Q9Y597]
- pKd (APBA1_1, Q02410; [2]): below the threshold
- pKd (ARHGEF11, O15085; [2]): 3.98
- pKd (ARHGEF12, Q9NZN5-2; [2]): below the threshold
- pKd (DLG5_1, Q8TDM6; [2]): below the threshold
- pKd (FRMPD3, Q5JV73; [2]): 3.7
- pKd (GRID2IP_2, A4D2P6; [2]): below the threshold
- pKd (GRIP1_2, Q9Y3R0; [2]): below the threshold
- pKd (HTRA1, Q92743; [2]): 3.98
- pKd (IL16_1, Q14005; [2]): below the threshold
- pKd (IL16_3, Q14005; [2]): below the threshold
- pKd (Inadl_3, Q8NI35; [2]): below the threshold
- pKd (Inadl_5, Q8NI35; [2]): below the threshold
- pKd (LNX1_2, Q8TBB1; [2]): below the threshold
- pKd (MAGI2_2, Q86UL8; [2]): below the threshold
- pKd (MAGI3_2, Q5TCQ9; [2]): below the threshold
- pKd (MAST1, Q9Y2H9; [2]): below the threshold
- pKd (MPP7, Q5T2T1; [2]): 4.1
- pKd (NHERF3_3, Q5T2W1; [2]): below the threshold
- pKd (PDLIM1, O00151; [2]): below the threshold
- pKd (PDZRN3_1, Q9UPQ7; [2]): below the threshold
- pKd (PTPN3, P26045; [2]): 4.14
- pKd (RADIL, Q96JH8; [2]): below the threshold
- pKd (RAPGEF6, Q8TEU7; [2]): below the threshold
- pKd (RHPN1, Q8TCX5; [2]): below the threshold
- pKd (SNTA1, Q13424; [2]): below the threshold
- pKd (SNTG2, Q9NY99; [2]): below the threshold
- pKd (TJP1_3, Q07157; [2]): below the threshold

Binder: ESLLLGPSNF [SHROOM4, Q9ULL8]
- pKd (APBA1_1, Q02410; [2]): below the threshold
- pKd (ARHGEF11, O15085; [2]): below the threshold
- pKd (ARHGEF12, Q9NZN5-2; [2]): below the threshold
- pKd (DLG5_1, Q8TDM6; [2]): below the threshold
- pKd (FRMPD3, Q5JV73; [2]): below the threshold
- pKd (GRID2IP_2, A4D2P6; [2]): below the threshold
- pKd (GRIP1_2, Q9Y3R0; [2]): below the threshold
- pKd (HTRA1, Q92743; [2]): below the threshold
- pKd (IL16_1, Q14005; [2]): below the threshold
- pKd (IL16_3, Q14005; [2]): below the threshold
- pKd (Inadl_3, Q8NI35; [2]): 3.59
- pKd (Inadl_5, Q8NI35; [2]): below the threshold
- pKd (LNX1_2, Q8TBB1; [2]): below the threshold
- pKd (MAGI2_2, Q86UL8; [2]): below the threshold
- pKd (MAGI3_2, Q5TCQ9; [2]): below the threshold
- pKd (MAST1, Q9Y2H9; [2]): below the threshold
- pKd (MPP7, Q5T2T1; [2]): below the threshold
- pKd (NHERF3_3, Q5T2W1; [2]): below the threshold
- pKd (PDLIM1, O00151; [2]): below the threshold
- pKd (PDZRN3_1, Q9UPQ7; [2]): below the threshold
- pKd (PTPN3, P26045; [2]): below the threshold
- pKd (RADIL, Q96JH8; [2]): below the threshold
- pKd (RAPGEF6, Q8TEU7; [2]): below the threshold
- pKd (RHPN1, Q8TCX5; [2]): below the threshold
- pKd (SNTA1, Q13424; [2]): below the threshold
- pKd (SNTG2, Q9NY99; [2]): below the threshold
- pKd (TJP1_3, Q07157; [2]): below the threshold
